# Reference: publication PMC13071878 (2026)
# Target: human angiotensin-converting enzyme 2, extracellular catalytic domain, produced in mammalian cells … (human, UniProt Q9BYF1 19-615)
# Experiment: FACS
# human angiotensin-converting enzyme 2, extracellular catalytic domain, produced in mammalian cells …, sequence (Q9BYF1 19-615): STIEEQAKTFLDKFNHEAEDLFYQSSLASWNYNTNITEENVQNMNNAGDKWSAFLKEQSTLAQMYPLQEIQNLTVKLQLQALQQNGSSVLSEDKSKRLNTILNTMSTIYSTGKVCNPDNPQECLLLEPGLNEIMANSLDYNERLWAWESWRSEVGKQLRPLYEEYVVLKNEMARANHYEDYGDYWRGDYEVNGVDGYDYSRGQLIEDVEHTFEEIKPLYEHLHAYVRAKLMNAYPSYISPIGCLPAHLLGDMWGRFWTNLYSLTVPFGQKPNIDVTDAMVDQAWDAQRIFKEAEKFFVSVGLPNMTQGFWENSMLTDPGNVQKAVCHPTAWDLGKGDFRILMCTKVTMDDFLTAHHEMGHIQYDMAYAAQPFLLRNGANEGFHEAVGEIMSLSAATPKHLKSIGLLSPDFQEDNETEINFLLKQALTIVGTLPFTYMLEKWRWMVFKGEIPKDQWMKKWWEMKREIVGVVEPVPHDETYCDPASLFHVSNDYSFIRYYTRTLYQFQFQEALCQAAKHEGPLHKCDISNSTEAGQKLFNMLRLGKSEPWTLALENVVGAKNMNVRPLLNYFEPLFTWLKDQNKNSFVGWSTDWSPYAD
binder,measurement,value
"ACEPLGYALFLCSG [GR1.9 (N8A), yeast-displayed alanine mutant of GR1.4]",Kd,> 1000 nM
